Measurements published in patent publication US20120115202A1.

Target: PsaJF mutant PSI from Synechocystis sp. PCC 6803 (Synechocystis sp. PCC 6803) (UniProt Q55329)
Assay: cell-based or functional assay

rate of electron donation (light-induced cytochrome c oxidation, absorbance difference 550-540 nm) (fold faster than to the wild-type PSI): > 5
Substance: horse heart cytochrome c (from UniProt P00004 2-105)
